Experimental data published in patent US20240000834A1, “RAS MUTANT EPITOPE PEPTIDE AND T CELL RECEPTOR RECOGNIZING RAS MUTANT” (SHANGHAI GENBASE BIOTECHNOLOGY CO., LTD., priority 2020, published 2024).
Where a chain is given by its changes, count along the chain named.

B1: β48Y-K: B13.14.1 TCR Vβ point mutant (protein)
TCR alpha: AQSVAQPEDQVNVAEGNPLTVKCTYSVSGNPYLFWYVQYPNRGLQFLLKYITGDNLVKGSYGFEAEFNKSQTSFHLKKPSALVSDSALYFCAVRDGRGGGNKLTFGTGTQLKVEL
TCR beta: GITQSPKYLFRKEGQNVTLSCEQNLNHDAMYWYRQDPGQGLRLIYKSQIVNDFQKGDIAEGYSVSREKKESFPLTVTSAQKNPTAFYLCASSPGQRDNSPLHFGNGTRLTVT
B2: β48Y-L: B13.14.1 TCR Vβ point mutant (protein)
TCR alpha: B1 TCR alpha
TCR beta: B1 TCR beta with K46L
B3: β48Y-N: B13.14.1 TCR Vβ point mutant (protein)
TCR alpha: B1 TCR alpha
TCR beta: B1 TCR beta with K46N
B4: β48Y-P: B13.14.1 TCR Vβ point mutant (protein)
TCR alpha: B1 TCR alpha
TCR beta: B1 TCR beta with K46P
B5: β48Y-Q: B13.14.1 TCR Vβ point mutant (protein)
TCR alpha: B1 TCR alpha
TCR beta: B1 TCR beta with K46Q
B6: β48Y-R: B13.14.1 TCR Vβ point mutant (protein)
TCR alpha: B1 TCR alpha
TCR beta: B1 TCR beta with K46R
B7: β48Y-S: B13.14.1 TCR Vβ point mutant (protein)
TCR alpha: B1 TCR alpha
TCR beta: B1 TCR beta with K46S
B8: β48Y-T: B13.14.1 TCR Vβ point mutant (protein)
TCR alpha: B1 TCR alpha
TCR beta: B1 TCR beta with K46T
B9: β48Y-V: B13.14.1 TCR Vβ point mutant (protein)
TCR alpha: B1 TCR alpha
TCR beta: B1 TCR beta with K46V
B10: β48Y-W: B13.14.1 TCR Vβ point mutant (protein)
TCR alpha: B1 TCR alpha
TCR beta: B1 TCR beta with K46W
B11: β51I-A: B13.14.1 TCR Vβ point mutant (protein)
TCR alpha: B1 TCR alpha
TCR beta: B1 TCR beta with K46Y, I49A
B12: β51I-D: B13.14.1 TCR Vβ point mutant (protein)
TCR alpha: B1 TCR alpha
TCR beta: B1 TCR beta with K46Y, I49D
B13: β51I-E: B13.14.1 TCR Vβ point mutant (protein)
TCR alpha: B1 TCR alpha
TCR beta: B1 TCR beta with K46Y, I49E
B14: β51I-F: B13.14.1 TCR Vβ point mutant (protein)
TCR alpha: B1 TCR alpha
TCR beta: B1 TCR beta with K46Y, I49F
B15: β51I-G: B13.14.1 TCR Vβ point mutant (protein)
TCR alpha: B1 TCR alpha
TCR beta: B1 TCR beta with K46Y, I49G
B16: β51I-H: B13.14.1 TCR Vβ point mutant (protein)
TCR alpha: B1 TCR alpha
TCR beta: B1 TCR beta with K46Y, I49H
B17: β51I-K: B13.14.1 TCR Vβ point mutant (protein)
TCR alpha: B1 TCR alpha
TCR beta: B1 TCR beta with K46Y, I49K
B18: β51I-L: B13.14.1 TCR Vβ point mutant (protein)
TCR alpha: B1 TCR alpha
TCR beta: B1 TCR beta with K46Y, I49L
B19: β51I-M: B13.14.1 TCR Vβ point mutant (protein)
TCR alpha: B1 TCR alpha
TCR beta: B1 TCR beta with K46Y, I49M
B20: β51I-P: B13.14.1 TCR Vβ point mutant (protein)
TCR alpha: B1 TCR alpha
TCR beta: B1 TCR beta with K46Y, I49P
B21: β51I-Q: B13.14.1 TCR Vβ point mutant (protein)
TCR alpha: B1 TCR alpha
TCR beta: B1 TCR beta with K46Y, I49Q
B22: β51I-R: B13.14.1 TCR Vβ point mutant (protein)
TCR alpha: B1 TCR alpha
TCR beta: B1 TCR beta with K46Y, I49R
B23: β51I-S: B13.14.1 TCR Vβ point mutant (protein)
TCR alpha: B1 TCR alpha
TCR beta: B1 TCR beta with K46Y, I49S
B24: β51I-T: B13.14.1 TCR Vβ point mutant (protein)
TCR alpha: B1 TCR alpha
TCR beta: B1 TCR beta with K46Y, I49T
B25: β51I-V: B13.14.1 TCR Vβ point mutant (protein)
TCR alpha: B1 TCR alpha
TCR beta: B1 TCR beta with K46Y, I49V
B26: β51I-W: B13.14.1 TCR Vβ point mutant (protein)
TCR alpha: B1 TCR alpha
TCR beta: B1 TCR beta with K46Y, I49W
B27: β51I-Y: B13.14.1 TCR Vβ point mutant (protein)
TCR alpha: B1 TCR alpha
TCR beta: B1 TCR beta with K46Y, I49Y
B28: α32Y-A: B13.14.1 TCR Vα point mutant (protein)
TCR alpha: B1 TCR alpha with Y32A
TCR beta: B1 TCR beta with K46Y
B29: α32Y-E: B13.14.1 TCR Vα point mutant (protein)
TCR alpha: B1 TCR alpha with Y32E
TCR beta: B1 TCR beta with K46Y
B30: α32Y-F: B13.14.1 TCR Vα point mutant (protein)
TCR alpha: B1 TCR alpha with Y32F
TCR beta: B1 TCR beta with K46Y
B31: α32Y-G: B13.14.1 TCR Vα point mutant (protein)
TCR alpha: B1 TCR alpha with Y32G
TCR beta: B1 TCR beta with K46Y
B32: α32Y-H: B13.14.1 TCR Vα point mutant (protein)
TCR alpha: B1 TCR alpha with Y32H
TCR beta: B1 TCR beta with K46Y

Each molecule was assayed against T1, KRAS-G12V antigen (RAS G12V-T15 peptide) (Homo sapiens, UniProt P01116, G12V) (assay: TCR mutant screening in Jurkat-NFAT-Luc cells with antigen-loaded B13 LCL cells (ONE Glo Luciferase)). Details: MHC-II binding region mutants; ratio to wild-type B13.14.1 TCR; 16-24 hours.
T1 construct: endogenous in cells; host or cells: patient B13 autologous LCL cells (endogenous HLA-DP); the peptide is synthetic
Type: cell-based
Description: According to the table below, point mutations were performed on the Vα and Vβ of B13.14.1 TCR (including CDR3 region and […]), and a lentiviral vector shuttle plasmid encoding the TCR mutant was constructed, packaged with the standard lentiviral vector in 293T cells, and B13.14.1TCR mutant were subjected to function screening.
The TCR mutant (CDR3 region) lentiviral vector was transduced into Jurkat-NFAT-Luc cell line, and B13 LCL cells loaded with KRAS-G12V antigen (RAS G12V-T15 peptide, SEQ ID NO: 5) were used as antigen-presenting cells. 2×10^4 TCR-T and 2×10^4 antigen-loaded B13 LCL cells were co-cultured for 16-24 hours, and added with ONE Glo Luciferase to detect the expression of fluorescent signal, and the TCR Mut RLU/WT RLU (ratio of RLU signal value of TCR mutant to RLU signal value of wild-type B13.14.1 TCR) was calculated.
The TCR mutant (MHC-II binding region) lentiviral vector was transduced into the Jurkat-NFAT-Luc cell line, and B13 LCL cells loaded with KRAS-G12V antigen (RAS G12V-T15 peptide, SEQ ID NO: 5) were used as the antigen-presenting cells. 2×10^4 TCR-T and 2×10^4 antigen-loaded B13 LCL cells were co-cultured for 16-24 hours, the fluorescence signal expression was detected by adding ONE Glo Luciferase, and TCR Mut RLU/WT RLU (ratio of RLU signal value of TCR mutant to RLU signal value of wild-type B13.14.1TCR) was calculated.

Going from B1 to B2, the “TCR Mut RLU/WT RLU” value falls from 83.49% to 37.97%.

Going from B3 to B4, the “TCR Mut RLU/WT RLU” value falls from 42.82% to 36.89%.

Going from B5 to B6, the “TCR Mut RLU/WT RLU” value rises from 42.56% to 62.60%.

Going from B7 to B8, the “TCR Mut RLU/WT RLU” value rises from 34.02% to 40.26%.

Going from B9 to B10, the “TCR Mut RLU/WT RLU” value falls from 63.15% to 32.62%.

Going from B11 to B12, the “TCR Mut RLU/WT RLU” value falls from 27.57% to 4.56%.

Going from B13 to B14, the “TCR Mut RLU/WT RLU” value rises from 6.28% to 32.79%.

Compared with B15, B16 is higher in “TCR Mut RLU/WT RLU” value: 5.49% for the first, 34.95% for the second.

First: B17
Second: B18
The “TCR Mut RLU/WT RLU” value of the first is lower: 3.82% for the first, 25.46% for the second.

Going from B19 to B20, the “TCR Mut RLU/WT RLU” value falls from 26.84% to 19.95%.

Going from B21 to B22, the “TCR Mut RLU/WT RLU” value falls from 12.98% to 9.90%.

Compared with B23, B24 is higher in “TCR Mut RLU/WT RLU” value: 21.00% for the first, 88.58% for the second.

Compared with B25, B26 is lower in “TCR Mut RLU/WT RLU” value: 35.46% for the first, 22.56% for the second.

First: B27
Second: B28
The “TCR Mut RLU/WT RLU” value of the first is higher: 19.64% for the first, 4.68% for the second.

Going from B29 to B30, the “TCR Mut RLU/WT RLU” value falls from 4.59% to 3.81%.

First: B31
Second: B32
The “TCR Mut RLU/WT RLU” value of the first is lower: 4.03% for the first, 5.60% for the second.
